Test results as given in patent publication US20090142281A1, “Composition Comprising A Coupled Enzyme System” (priority 2005, published 2009).

Columns and labels:
[1] = cited from earlier work
[2] = In gel overlay activity assay (PMS/NBT) using sorbitol as substrate; assay type: biochemical; settings: native gel
Text: b) In gel overlay activity assay (PMS/NBT) using sorbitol as substrate.
The cell lysates were fractionated on a native gel that was further tested in an in-gel overlay activity assay using sorbitol as the substrate and an assay based on the PMS mediated reduction of NBT. […] The PMS/NBT is a diagnostic assay for flavoproteins where PMS=phenazine methosulfate is a redox mediator which is reduced by reduced FAD.

B1: sorbitol oxidase from Streptomyces species H-7775: sorbitol oxidase of Streptomyces sp. H-7775, SEQ ID NO 1, 420 amino acids (protein)
chain: MTPAEKNWAGNITFGAKRLCVPRSVRELRETVAASGAVRPLGTRHSFNTVADTSGDHVSLAGLPRVVDIDVPGRAVSLSAGLRFGEFAAELHARGLALANLGSLPHISVAGAVATGTHGSGVGNRSLAGAVRALSLVTADGETRTLRRTDEDFAGAVVSLGALGVVTSLELDLVPAFEVRQWVYEDLPEATLAARFDEVMSAAYSVSVFTDWRPGPVGQVWLKQRVGDEGARSVMPAEWLGARLADGPRHPVPGMPAGNCTAQQGVPGPWHERLPHFRMEFTPSNGDELQSEYFVARADAVAAYEALARLRDRIAPVLQVSELRTVAADDLWLSPAHGRDSVAFHFTWVPDAAAVAPVAGAIEEALAPFGARPHWGKVFSTAPEVLRTLYPRYADFEELVGRHDPEGTFRNAFLDRYFRR
modifications: Streptomyces sp. H7775
- pH range of stability ([1]; 24 hours at 30° C.): 7.5-10 pH
- optimum temperature ([1]; at pH 7.5): 50 °C
- activity towards sorbitol (stained band) [2]: has activity towards sorbitol
